The values that follow come from paper PMC11264168.

Test [1] addresses SyB-Cph1(GAF-PHY) Arg101-Ala mutant (Synechococcus sp. JA-2-3B'a(2-13)). The test is described as follows: SEC; arginine-to-alanine mutants; data not shown.
Test [2] addresses SyB-Cph1(GAF-PHY) Arg111-Ala mutant (Synechococcus sp. JA-2-3B'a(2-13)). Description: SEC; arginine-to-alanine mutants; data not shown. In general terms: SEC sorts molecules by how far they enter the pores of the column.
The target of test [3] is SyB-Cph1(GAF-PHY) Arg133-Ala mutant (Synechococcus sp. JA-2-3B'a(2-13)). The test is described as follows: SEC; arginine-to-alanine mutants; data not shown.
Test [4] concerns the target SyB-Cph1(GAF-PHY), the GAF-PHY fragment (photo-sensing module) of the PAS-less phytochrome SyB-Cph1, residues 1-421, assembled with phycocyanobilin, as Pr (Synechococcus sp. JA-2-3B'a(2-13)). Description: SEC; Pr in darkness, 30 mM Tris-HCl (pH 8.0), Superdex 200 Increase 10/300 GL, 0.5 ml/min, gel filtration mass standards.

On to “SyB-Cph1(GAF-PHY) Arg101-Ala mutant (domain or fragment)”, for which, in test [1], the stoichiometry N – broadly, the number of molecules, sites or subunits per partner or assembly – is 2. Substance “SyB-Cph1(GAF-PHY) Arg111-Ala mutant (domain or fragment)” had a stoichiometry N in test [2] of 2. “SyB-Cph1(GAF-PHY) Arg133-Ala mutant (domain or fragment)” came in with a stoichiometry N in test [3] of 2. In test [4], “SyB-Cph1(GAF-PHY), the GAF-PHY fragment (photo-sensing module) of the PAS-less phytochrome SyB-Cph1, residues 1-421, assembled with phycocyanobilin, as Pr (domain or fragment)” gave a stoichiometry N of 2.
